Target: Vrl1-Envy (S. cerevisiae)
Assay: co-IP

B1: Vin1-3HA (natural protein)
chain: MENDKASHASPSIGVNEFVVQGEISIDDSERSVKSVSVSISDDEDSKTDVQDNMATPSTRSKFQTDLAIDNRLLEKDPKYKKLFTEKRRRRRPESCINLMTKGKGTGQKDNINDQIFSLRILPGSDLNSLKDSLWIIKISTQPDVEKTIARAFSDFYWLYHQLQNNHWGKTIPPPTRSNILVEKDEFAINHLFMIRNNEKYDPIFNFKPEYIISLQLMAMIKHIFNDKVLRLDSNFIDFISWDDDLPESLQIVVDDSTFTGDKILMTSSQFRELKEFHKQSKKVESITNSHASLIPVTELTEIYISPTKLFSRKDYQRLFQPQSTDNTFNNNDPLIQEWIPKSKTLFTSLSFGSSAPTYQEASTEIQACHDWVSISKEQWKQLLYHVLQYIVDEAVKVNSVINEFTECLKQISLDEVIRANSELFLKFSKLNESFLKKFKGASRQDILKLIILFDENVRFCESFESILNQRLKLGKILSIIEVDLDKKKNFLDKLSPGNNNSNNEDLKIRTAEDEYRIVLKRYNRVKQSWEKIMEDILNERKEFEKREAAEVNSCLKSIRDLNMDEKKHYLQLWQDFVPDEHISQ
recovery of Vin1 in the co-IP: 64%
